In the DeepSol protein solubility set:

Assay: soluble on expression in E. coli; label from the status in PepcDB or PDB records
For “MRRARIQIKPNISKAAKQEPPPEPAPVVEETLPQAPVVAEPRILENVETMTNQVSLTVASESMKSLHVDTSKNHHVHFTDDVIDNEQNRIQETPDIVMISPTSQQNAQFASPNPPARLTPRSRNVSMCEDEAILQPKQPRDKKRFSGREELDTKTWKMSDLTRWNPKNEMTRFKRERRSSTSSSVITKSEIGDLDAPPAPRINAPQVKIGADGRLVIDETSLVVHSAQINHESVWETVEEGRMGAKITSMSFRKRGFGKSSFWSEKETDLFYEVLQCTGQDFGLMSHYLPKRTRPELKAKYNREEKINWARVLNAISHPVRLDGNLEVRISKLMTEMEEEAQEKKAKGEYEKAEEKRIREQNRLQKATERNQAKELVKQAKELERDARNAAKLNMKADKEARAQEKSETRQLEKTALKEARLMATEAKRIAMEARAIIKESRKLEKSKKADSVQSDSHNLEREAERIIRRLLQESQREDRRTAHFNKNDKPAAPKSTEEATTSEVSAPTKSPAPVVVTIDASEGELGDTSTDAADSSSASSSDDDALRKDAARREKQRMKEARRNLKPRKTVADKKPVYVDTTDPKYAQQKVSRAVEMVLKANGNMFDSAGEQDDDFPDPDEMETSAEPVVVEEVAPDPTPPPPENMEENVVEESVPQSVIDVVEEIMRGRSKTPVETAVKPLENTEESKTDGEDRKKRSADVDSGGPSPKVARLEGVDVPVEDSTEVATSSTVTSSSAPSSSSSTTVAPAIKPSTAPKPAIASARRTVKKPNTWSKKK”, the “soluble on expression in E. coli” value was “not soluble”.
With “MRRCCGDLAASRGGCEPASRNLTRTRLTFAALGRINRPAEHDREDAMTRQEARDHEPRDQDAALSRRTLVRGLALGAAATMAGPALAQTGPAAPPTTITTPPRDFGPNGAPTTYFWDPDIIAVDPSFDDLAQPNTAIKRLYTGVLWAEGPAWSAQGRYLLWSDIPNNRQMRWSEDDGRISVFRSPSNNSNGNSFDFQGRQLSCEHLTRRVTRYEHDGTATVLCDNYNGKKLNSPNDVVAHPDGSYWFTDPPYGGQLYEGEPDAAGGPSNSGGKLNPRIGQPAGFTPGKRELPTNCYRIDPSGRVDLVVTEEQVPDPNGLCFSPDFKKLYVVSTGKGPGDSGPGGKGEIFVFDVGADNKLSNQKRFSDCTIDGVKCGPDGVRCDVNGNVWASSNAGRAVGYSGVTVWSPEGKLLGRIRLPEVCGNICFGGPKRNRLFMAASQSLYAVFTATQGAGPGLEHHHHHH” the “soluble on expression in E. coli” value was “soluble”.
For “MRRLLWLLTLGALAVALTACPRKAEEEAATETAPAEETSLPGANVRVGLAFDAGGKFDRSFNQSAWEGAQRAAQELGVQIFDFEPADPSQVGQGIRTFAEEGFDLVIGVGFANEPAITATAKEFPNVKFAVIDAVPGEGQLPNALGVVFREHEGSFLVGYVAGKLSRTGVVGFIGGMDIPLIHKFEAGFRAGAEYAFQEDGIQGRVLVGYVGNTPAAWNDPAKAKEIASSQARQGADIIYAAAGGSGLGLIDFVKEEMCLREGGAVRFVREDRFADVPKYPAYEEKCGEGTTPLFFIGVDANQNYLGDTDNDPTTLNHGLTSMVKRVDVAVYDTIKSVVDGTFQGGVKDLGLAEEGVGYALDEYNQALIPEEVKARLEELKQAIINGEIQVPETR”, the “soluble on expression in E. coli” value was “soluble”.
With “MRRRGKGGGSVFYHEGKGKWVAQLTWIDPATGRKVKREKHCETRKEAERALADMVVAQAKGLLTDPSRLTTRDFALDYLKRLEREGLRPNSIRLAQEELAHALPSLKDPKAHDPLGRMRLQEVKPVHVRAAVDRVAEAGYAPRTVGRVLMRLKALFREALRLELVARNPAEAVRLRLPKGEKTARALEPQEVARLLETAEASRSKDMALLLRLMLETGLRRGEALALQWRDIDLEAGELTVWRSWTKARGKGAFSEPKTPTAKRKVPLPRGLLLRLKARREELLERLTPKEVDGLFLVGGVKPVDPDAFNHYLRRLAERAGLGRVRVHDLRHTWATLALSRGVPLEVVSERLGHASPTITLNVYRHLLEEERRGWVLDLEELLYPAPRAQA” the “soluble on expression in E. coli” value was “soluble”.
With “MRSDKVGSIKDLPSLPAGVKFDPSDKEILMHLEAKVSSDKRKLHPLIDEFIPTLEGENGICYTHPEKLPGVSKDGQVRHFFHRPSKAYTTGTRKRRKVSTDEEGHETRWHKTGKTRPVLSQSGETGFKKILVLYTNYGRQKKPEKTNWVMHQYHLGSSEDEKDGEPVLSKVFYQTQPRQCGSMEPKPKNLVNLNRFSYENIQAGFGYEHGGKSEETTQVIRELVVREGDGSCSFLSFTCDASKGKESFMKNQ” the “soluble on expression in E. coli” value was “soluble”.
For “MRSLLIALAATVALSLPARADEVTVAVTAIVEHPALDAARDGVKDALAAAGYKEGENLKFIYESAQGNPATAAQIARQFAGEAPSVIVPISTPSAQAVVSSTRDIPVVFTAVSDPLGAQLVKDMEKPGGNVTGLSDLSPVAEHVALIKEILPNVKTIGYLYNSGEANSVSLLAVLKEEAEKAGLSVIESAATKSAEVQGAARALVGRADAIYIPTDNTIISALEGAVAVAEESKLPLFTADTDSVSRGAVAALGFNYYDVGKQTGEVVVRVLKGENPGDIAVKVAAGTDLVINKGAATRMGVTLPESVVGRATRTIE”, the “soluble on expression in E. coli” value was “not soluble”.
In the case of “MRSQDKYERFIQLLAHEFFHLWNVKRIRPQALEVFNYDQENYTPSLWFCEGTTSYYDLLIPLRAGIYDAKTYLNYWSKEISRLITTPGRKVQPLSESSFDAWIKLYRPDTNTGNSQVSYYLKGELEHHHHHH”, the “soluble on expression in E. coli” value is reported as “not soluble”.
For “MRSRRGLLIVLSGPSGVGKGTVRKELFSHEDTRFQYSISVTTRKPREGEVDGVDYFFKEREEFEEMIRNEKLLEWAEFVGNYYGTPIDYVEKTLQEGKDVFLEIEVQGAIQVKKAFPEGVFIFLAPPSLSELKNRIVGRGTETEDVIENRLTVAKEEIDMMDAYDYVVENDQVELACERIKAIVVGEHCRRERVAKYYKEMTEGL”, the “soluble on expression in E. coli” value was “not soluble”.
In the case of “MRSTELIVERGPSRNEAHSMVNESPSNQPQEQFSLEPKWKTAAAPSCESSSEEAAYPKGNEEEEHNEARPRALCRLTDVSTDHYAKNPDSEEEDAQDEAEGDGSHVGAIPAEAATTARPHDLHKAKKKRSNHAKETKAAETLEKPAAPRKKKPMYKVNIGNVERHPPVPEGVNTPRSVMLCKECGVNPSELARYDRKHFQGAGVSDEVAELRYQSYEKRRCARMAQLKPAYKESIKYDLEDPVSVPAAKRKAQAAEEAPARPAAAAQAAAPPPKLLDEEAQMQRQFEAQHQRLLEQERRKTVTSGYDSDGRRRSPPRAGHFYGASVRSVGSAKSPGRYSRNTSVGARPTVDQPYSAAKIYSASIVESRPLTQSEVIMIDEINEREAHRIDTQERAFVIQENKQLMHVERELIRERLACVRVQKNAEDREKMQQKMHKRNEARQNVVAKRRKKLEAERQARIQDSVAEKAARCHTTNPYASLMLRQMSGFSTCHTSSSFPSQGADVSASREQSSEAE”, the “soluble on expression in E. coli” value is reported as “soluble”.
For “MRSVRRREALREWIMAKLYFNYSTMNAGKSTMLLQASYNYQERGMRTLIFTAAFDDRAGVGRVASRIGLSSEARTFDENTDLFAEVAALHAQAPVACVFVDEANFLSEHHVWQLANIADRLNIPVMTYGLRTDFQGKLFPASKELLAIADELREIRTICHCGRKATMVARFDSEGKVVTEGAQIEVGGNGKYVSFCRRHWVETFNCSLEHHHHHH”, the “soluble on expression in E. coli” value was “not soluble”.
In the case of “MRTFESVADLAAAAGEKVGQSDWVTITQEEVNLFADATGDHQWIHVDPERAAAGPFGTTIAHGFMTLALLPRLQHQMYTVKGVKLAINYGLNKVRFPAPVPVGSRVRATSSLVGVEDLGNGTVQATVSTTVEVEGSAKPACVAESIVRYVA”, the “soluble on expression in E. coli” value is reported as “soluble”.
For “MRTGKQYLESLNDGRVVWVGNEKIDNVATHPLTRDYAERVAQFYDLHHRPDLQDVLTFVDADGVRRSRQWQDPKDAAGLRVKRKYHETILREIAAGSYGRLPDAHNYTFTTYADDPEVWEKQSIGAEGRNLTQNIHNFLKLLREKDLNCPLNFVDPQTDRSSDAAQARSPNLRIVEKTDDGIIVNGVKAVGTGIAFGDYMHIGCLYRPGIPGEQVIFAAIPTNTPGVTVFCRESTVKNDPAEHPLASQGDELDSTTVFDNVFIPWEQVFHIGNPEHAKLYPQRIFDWVHYHILIRQVLRAELIVGLAILITEHIGTSKLPTVSARVAKLVAFHLAMQAHLIASEETGFHTKGGRYKPNPLIYDFGRAHFLQNQMSVMYELLDLAGRSSLMIPSEGQWDDSQSGQWFVKLNNGPKGNPRERVQIGRVIRDLYLTDWGGRQFMFENFNGTPLFAVFAATMTRDDMSAAGTYGKFASQVCGIEFGGAEPTAYAATADYAKALDKGLAPEPAAAESATS”, the “soluble on expression in E. coli” value was “soluble”.
In the case of “MRTIERTTIFKRDFKREMKGQHRHLLDTDLRKVIAALANDQPLEIRYRDHALTGNWSNYRDCHIRPDLVLIYRLIGQDRLVLVRLGSHSQLDL”, the “soluble on expression in E. coli” value is reported as “not soluble”.
